How the values were obtained:
[1] = target: Vibrio cholerae ParE2 (VcParE2), wild type, C-terminally histidine-tagged (Vibrio cholerae); experiment: BLI
[2] = target: DNA gyrase (GyrA+GyrB, full Gyrase);VcParE2 (Escherichia coli;Vibrio cholerae) (UniProt P0AES4+P0AES6+Q9KMJ0); experiment: EMSA
Sequence of UniProt P0AES4 (P0AES4 whole entry, one chain of several): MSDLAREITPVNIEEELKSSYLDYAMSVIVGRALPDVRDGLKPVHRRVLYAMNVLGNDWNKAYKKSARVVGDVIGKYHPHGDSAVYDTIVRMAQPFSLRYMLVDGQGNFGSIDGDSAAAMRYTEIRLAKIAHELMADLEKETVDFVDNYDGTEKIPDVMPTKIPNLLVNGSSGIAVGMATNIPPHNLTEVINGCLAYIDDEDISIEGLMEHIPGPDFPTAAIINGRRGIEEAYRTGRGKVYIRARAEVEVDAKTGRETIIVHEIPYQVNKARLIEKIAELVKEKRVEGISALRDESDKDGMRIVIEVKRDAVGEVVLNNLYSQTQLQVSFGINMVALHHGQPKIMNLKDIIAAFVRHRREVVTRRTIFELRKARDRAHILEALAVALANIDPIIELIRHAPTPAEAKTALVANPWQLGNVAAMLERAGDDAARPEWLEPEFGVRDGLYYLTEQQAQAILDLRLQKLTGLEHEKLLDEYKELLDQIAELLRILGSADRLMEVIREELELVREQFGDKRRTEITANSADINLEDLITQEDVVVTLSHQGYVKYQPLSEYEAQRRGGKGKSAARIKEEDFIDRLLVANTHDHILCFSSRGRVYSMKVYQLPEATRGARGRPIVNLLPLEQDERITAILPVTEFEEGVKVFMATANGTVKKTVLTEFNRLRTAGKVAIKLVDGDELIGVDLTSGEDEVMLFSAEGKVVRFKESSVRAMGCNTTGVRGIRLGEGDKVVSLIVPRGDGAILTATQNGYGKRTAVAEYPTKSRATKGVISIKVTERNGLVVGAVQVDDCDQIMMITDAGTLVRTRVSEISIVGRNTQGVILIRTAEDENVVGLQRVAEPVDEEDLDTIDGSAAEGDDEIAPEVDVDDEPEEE

Q: “VcParD2 peptide E41-S60 (N-terminal helix of the C-terminal domain)” was tested. Which Kd [1] did it give?
A: Its Kd is 778 nM.

Q: With “GCTGCTCATCATGGTTTGTGAGCAGTCAGTTTGCGGGAGGTGCGGGAAAATCTGGGGTTATGCTATTTGAGTACTGGAGAAAGAAAGTGAAAGGAAGATAAAACGGGATTCATACACCGTTAAATACCGGTTTAAAAATCCCGTGGCGCGTTTTAAAAAATCTGTGCGGCTGATTTTATGCCTGATTCTGTTTATTGCCTCAGAGCGGCGCTGACGCGTTTTCTGATGGCATCAAAAATTTCCTGTTCCCCGGTCTTATCCAGCCCCATATAAGGACGCGCAGGAA (double strand) [286-bp Mu strong gyrase site fragment]” as the substance, how does the binding [2] read?
A: Its binding is “binds”.

From publication doi:10.1101/2025.07.24.666505
